Laboratory results as given in paper PMC9482650, “Quantitative fragmentomics allow affinity mapping of interactomes” (Nature Communications, 2022).

T1: DLG3_1, Q92796
T1 sequence (Q92796 125-227, limits assumed, looked up): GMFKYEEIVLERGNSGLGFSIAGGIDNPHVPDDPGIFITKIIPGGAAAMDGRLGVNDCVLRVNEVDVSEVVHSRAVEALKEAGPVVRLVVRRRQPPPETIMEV

T2: HTRA4, P83105
T2 sequence (P83105 378-476, limits assumed, looked up): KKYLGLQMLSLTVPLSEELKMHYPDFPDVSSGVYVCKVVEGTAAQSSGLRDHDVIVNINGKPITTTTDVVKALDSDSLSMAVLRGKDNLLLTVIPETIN

T3: LIN7B, Q9HAP6
T3 sequence (Q9HAP6 88-185, limits assumed, looked up): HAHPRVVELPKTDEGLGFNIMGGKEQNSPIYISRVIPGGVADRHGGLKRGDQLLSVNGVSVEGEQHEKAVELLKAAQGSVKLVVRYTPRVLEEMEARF

T4: LRRC7, Q96NW7
T4 sequence (Q96NW7 1440-1537, limits assumed, looked up): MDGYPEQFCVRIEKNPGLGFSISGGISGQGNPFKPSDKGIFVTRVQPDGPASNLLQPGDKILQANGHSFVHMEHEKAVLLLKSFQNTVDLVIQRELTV

T5: MPP2, Q14168
T5 sequence (Q14168 180-250, limits assumed, looked up): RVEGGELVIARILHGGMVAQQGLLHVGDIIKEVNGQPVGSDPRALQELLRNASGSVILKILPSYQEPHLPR

T6: MPP6, Q9NZW5
T6 sequence (Q9NZW5 125-219, limits assumed, looked up): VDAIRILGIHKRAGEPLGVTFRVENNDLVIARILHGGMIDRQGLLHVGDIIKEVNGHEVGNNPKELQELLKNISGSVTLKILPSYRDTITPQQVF

T7: NHERF3_1, Q5T2W1
T7 sequence (Q5T2W1 4-100, limits assumed, looked up): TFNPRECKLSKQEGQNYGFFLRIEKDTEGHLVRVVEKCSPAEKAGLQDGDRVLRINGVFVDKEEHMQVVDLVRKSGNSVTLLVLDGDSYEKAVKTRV

T8: NHERF3_4, Q5T2W1
T8 sequence (Q5T2W1 373-468, limits assumed, looked up): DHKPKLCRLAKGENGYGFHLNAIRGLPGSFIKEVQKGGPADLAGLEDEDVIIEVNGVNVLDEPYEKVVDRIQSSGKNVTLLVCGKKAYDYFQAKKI

T9: PDZRN3_1, Q9UPQ7
T9 sequence (Q9UPQ7 244-349, limits assumed, looked up): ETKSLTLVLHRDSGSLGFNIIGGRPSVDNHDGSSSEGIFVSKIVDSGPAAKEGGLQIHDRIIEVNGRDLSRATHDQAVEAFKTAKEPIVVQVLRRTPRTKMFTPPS

T10: SNTB1, Q13884
T10 sequence (Q13884 107-205, limits assumed, looked up): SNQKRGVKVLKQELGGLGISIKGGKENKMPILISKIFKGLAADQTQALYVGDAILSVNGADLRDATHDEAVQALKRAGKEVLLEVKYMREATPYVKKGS

T11: TX1BP3, O14907
T11 sequence (O14907 10-122, limits assumed, looked up): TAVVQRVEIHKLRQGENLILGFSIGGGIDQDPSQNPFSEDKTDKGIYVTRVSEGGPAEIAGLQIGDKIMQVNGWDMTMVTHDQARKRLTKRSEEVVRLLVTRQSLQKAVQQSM

B1: RCN1, Q15293 (peptide)
chain: EDLTKNHDEL

Molecular target: ARHGEF12, Q9NZN5-2
Sequence (Q9NZN5 other isoform, or with tags, fused parts or gaps): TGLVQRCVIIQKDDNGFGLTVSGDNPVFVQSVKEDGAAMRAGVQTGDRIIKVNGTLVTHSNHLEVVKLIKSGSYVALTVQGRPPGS
Assay: holdup assay
Parameters: key: below the threshold = too weak to quantify, mostly under pKd 3.1 to 4
Conditions: plain residues with an end cap or a label only (N-terminal biotin on a linker: ado-ado)

Binder	pKd
B1	3.51

Molecular target: DLG2_2, Q15700
Assay: holdup assay
Parameters: key: below the threshold = too weak to quantify, mostly under pKd 3.1 to 4
Conditions: plain residues with an end cap or a label only (N-terminal biotin on a linker: ado-ado)

Binder	pKd
B1	below the threshold

Molecular target: DLG2_3, Q15700
Assay: holdup assay
Parameters: key: below the threshold = too weak to quantify, mostly under pKd 3.1 to 4
Conditions: plain residues with an end cap or a label only (N-terminal biotin on a linker: ado-ado)

Binder	pKd
B1	below the threshold

Molecular target: T1, DLG3_1, Q92796
Assay: holdup assay
Parameters: key: below the threshold = too weak to quantify, mostly under pKd 3.1 to 4
Conditions: plain residues with an end cap or a label only (N-terminal biotin on a linker: ado-ado)

Binder	pKd
B1	below the threshold

Molecular target: FRMPD2_1, Q68DX3
Sequence (Q68DX3 770-861): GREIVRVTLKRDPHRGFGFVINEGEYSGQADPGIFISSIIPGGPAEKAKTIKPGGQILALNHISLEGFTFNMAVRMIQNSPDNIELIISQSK
Assay: holdup assay
Parameters: key: below the threshold = too weak to quantify, mostly under pKd 3.1 to 4
Conditions: plain residues with an end cap or a label only (N-terminal biotin on a linker: ado-ado)

Binder	pKd
B1	below the threshold

Molecular target: GORASP2, Q9H8Y8
Assay: holdup assay
Parameters: key: below the threshold = too weak to quantify, mostly under pKd 3.1 to 4
Conditions: plain residues with an end cap or a label only (N-terminal biotin on a linker: ado-ado)

Binder	pKd
B1	below the threshold

Molecular target: GRIP2_3, Q9C0E4
Sequence (Q9C0E4 238-339): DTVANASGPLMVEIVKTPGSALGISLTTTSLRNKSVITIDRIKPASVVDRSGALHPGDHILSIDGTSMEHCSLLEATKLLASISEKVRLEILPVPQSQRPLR
Assay: holdup assay
Parameters: key: below the threshold = too weak to quantify, mostly under pKd 3.1 to 4
Conditions: plain residues with an end cap or a label only (N-terminal biotin on a linker: ado-ado)

Binder	pKd
B1	3.51

Molecular target: GRIP2_5, Q9C0E4
Sequence (Q9C0E4 544-642): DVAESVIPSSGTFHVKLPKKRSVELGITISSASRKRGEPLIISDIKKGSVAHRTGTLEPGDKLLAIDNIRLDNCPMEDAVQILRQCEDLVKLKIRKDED
Assay: holdup assay
Parameters: key: below the threshold = too weak to quantify, mostly under pKd 3.1 to 4
Conditions: plain residues with an end cap or a label only (N-terminal biotin on a linker: ado-ado)

Binder	pKd
B1	below the threshold

Molecular target: GRIP2_6, Q9C0E4
Sequence (Q9C0E4 648-740): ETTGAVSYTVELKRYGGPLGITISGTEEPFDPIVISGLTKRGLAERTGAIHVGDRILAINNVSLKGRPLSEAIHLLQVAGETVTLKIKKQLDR
Assay: holdup assay
Parameters: key: below the threshold = too weak to quantify, mostly under pKd 3.1 to 4
Conditions: plain residues with an end cap or a label only (N-terminal biotin on a linker: ado-ado)

Binder	pKd
B1	below the threshold

Molecular target: T2, HTRA4, P83105
Assay: holdup assay
Parameters: key: below the threshold = too weak to quantify, mostly under pKd 3.1 to 4
Conditions: plain residues with an end cap or a label only (N-terminal biotin on a linker: ado-ado)

Binder	pKd
B1	below the threshold

Molecular target: Inadl_1, Q8NI35
Sequence (Q8NI35 113-229): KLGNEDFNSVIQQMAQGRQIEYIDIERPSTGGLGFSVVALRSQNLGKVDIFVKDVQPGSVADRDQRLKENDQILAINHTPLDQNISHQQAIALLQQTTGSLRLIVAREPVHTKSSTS
Assay: holdup assay
Parameters: key: below the threshold = too weak to quantify, mostly under pKd 3.1 to 4
Conditions: plain residues with an end cap or a label only (N-terminal biotin on a linker: ado-ado)

Binder	pKd
B1	below the threshold

Molecular target: LDB3, O75112
Sequence (O75112 1-94): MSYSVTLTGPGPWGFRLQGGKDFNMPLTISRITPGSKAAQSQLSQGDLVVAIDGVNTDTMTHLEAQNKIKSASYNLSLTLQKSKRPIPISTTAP
Assay: holdup assay
Parameters: key: below the threshold = too weak to quantify, mostly under pKd 3.1 to 4
Conditions: plain residues with an end cap or a label only (N-terminal biotin on a linker: ado-ado)

Binder	pKd
B1	3.54

Molecular target: T3, LIN7B, Q9HAP6
Assay: holdup assay
Parameters: key: below the threshold = too weak to quantify, mostly under pKd 3.1 to 4
Conditions: plain residues with an end cap or a label only (N-terminal biotin on a linker: ado-ado)

Binder	pKd
B1	below the threshold

Molecular target: LNX1_3, Q8TBB1
Sequence (Q8TBB1 500-596): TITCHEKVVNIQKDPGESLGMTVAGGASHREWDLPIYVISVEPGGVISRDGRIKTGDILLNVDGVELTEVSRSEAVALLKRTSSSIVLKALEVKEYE
Assay: holdup assay
Parameters: key: below the threshold = too weak to quantify, mostly under pKd 3.1 to 4
Conditions: plain residues with an end cap or a label only (N-terminal biotin on a linker: ado-ado)

Binder	pKd
B1	3.54

Molecular target: T4, LRRC7, Q96NW7
Assay: holdup assay
Parameters: key: below the threshold = too weak to quantify, mostly under pKd 3.1 to 4
Conditions: plain residues with an end cap or a label only (N-terminal biotin on a linker: ado-ado)

Binder	pKd
B1	below the threshold

Molecular target: MAST2, Q6P0Q8
Sequence (Q6P0Q8 1099-1202): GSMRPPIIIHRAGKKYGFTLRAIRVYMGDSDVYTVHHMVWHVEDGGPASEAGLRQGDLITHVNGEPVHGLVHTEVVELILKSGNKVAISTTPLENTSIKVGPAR
Assay: holdup assay
Parameters: key: below the threshold = too weak to quantify, mostly under pKd 3.1 to 4
Conditions: plain residues with an end cap or a label only (N-terminal biotin on a linker: ado-ado)

Binder	pKd
B1	below the threshold

Molecular target: T5, MPP2, Q14168
Assay: holdup assay
Parameters: key: below the threshold = too weak to quantify, mostly under pKd 3.1 to 4
Conditions: plain residues with an end cap or a label only (N-terminal biotin on a linker: ado-ado)

Binder	pKd
B1	below the threshold

Molecular target: T6, MPP6, Q9NZW5
Assay: holdup assay
Parameters: key: below the threshold = too weak to quantify, mostly under pKd 3.1 to 4
Conditions: plain residues with an end cap or a label only (N-terminal biotin on a linker: ado-ado)

Binder	pKd
B1	below the threshold

Molecular target: T7, NHERF3_1, Q5T2W1
Assay: holdup assay
Parameters: key: below the threshold = too weak to quantify, mostly under pKd 3.1 to 4
Conditions: plain residues with an end cap or a label only (N-terminal biotin on a linker: ado-ado)

Binder	pKd
B1	3.75

Molecular target: T8, NHERF3_4, Q5T2W1
Assay: holdup assay
Parameters: key: below the threshold = too weak to quantify, mostly under pKd 3.1 to 4
Conditions: plain residues with an end cap or a label only (N-terminal biotin on a linker: ado-ado)

Binder	pKd
B1	below the threshold

Molecular target: PDLIM1, O00151
Sequence (O00151 1-87): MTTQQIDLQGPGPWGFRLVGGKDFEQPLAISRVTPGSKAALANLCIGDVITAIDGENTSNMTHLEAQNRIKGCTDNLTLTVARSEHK
Assay: holdup assay
Parameters: key: below the threshold = too weak to quantify, mostly under pKd 3.1 to 4
Conditions: plain residues with an end cap or a label only (N-terminal biotin on a linker: ado-ado)

Binder	pKd
B1	3.52

Molecular target: T9, PDZRN3_1, Q9UPQ7
Assay: holdup assay
Parameters: key: below the threshold = too weak to quantify, mostly under pKd 3.1 to 4
Conditions: plain residues with an end cap or a label only (N-terminal biotin on a linker: ado-ado)

Binder	pKd
B1	3.65

Molecular target: SCRIB_2, Q14160
Sequence (Q14160 857-960): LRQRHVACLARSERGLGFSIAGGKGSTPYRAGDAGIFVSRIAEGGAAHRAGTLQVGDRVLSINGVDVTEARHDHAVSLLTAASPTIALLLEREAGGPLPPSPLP
Assay: holdup assay
Parameters: key: below the threshold = too weak to quantify, mostly under pKd 3.1 to 4
Conditions: plain residues with an end cap or a label only (N-terminal biotin on a linker: ado-ado)

Binder	pKd
B1	3.54

Molecular target: T10, SNTB1, Q13884
Assay: holdup assay
Parameters: key: below the threshold = too weak to quantify, mostly under pKd 3.1 to 4
Conditions: plain residues with an end cap or a label only (N-terminal biotin on a linker: ado-ado)

Binder	pKd
B1	below the threshold

Molecular target: TJP1_2, Q07157
Sequence (Q07157 181-274): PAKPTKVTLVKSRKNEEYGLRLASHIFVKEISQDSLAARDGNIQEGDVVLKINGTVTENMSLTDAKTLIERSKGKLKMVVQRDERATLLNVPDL
Assay: holdup assay
Parameters: key: below the threshold = too weak to quantify, mostly under pKd 3.1 to 4
Conditions: plain residues with an end cap or a label only (N-terminal biotin on a linker: ado-ado)

Binder	pKd
B1	below the threshold

Molecular target: T11, TX1BP3, O14907
Assay: holdup assay
Parameters: key: below the threshold = too weak to quantify, mostly under pKd 3.1 to 4
Conditions: plain residues with an end cap or a label only (N-terminal biotin on a linker: ado-ado)

Binder	pKd
B1	below the threshold
